The target of one assay is T1, Cyno-his (cynomolgus).
T1 construct: extracellular domain; soluble analyte of the Biacore runs; also called cSCRx91-his; cBMPR1B-CHis
Put plainly: Biacore. In general terms: Surface plasmon resonance follows binding to a sensor surface in real time, without labels.

The target of a further assay is T2, rat-his.
T2 construct: soluble analyte of the Biacore runs; also called rSCRx91-his; rBMPR1B-CHis
T2 chain: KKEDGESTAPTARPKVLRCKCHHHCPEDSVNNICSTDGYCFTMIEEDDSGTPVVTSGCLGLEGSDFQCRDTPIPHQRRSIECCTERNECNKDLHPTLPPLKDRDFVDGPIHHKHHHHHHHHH
Put plainly: Biacore.

Assay [1] addresses T3, hBMPR1B-His (human BMPR1B extracellular domain, residues K14 to R126, with C-terminal 9x-Histidine tag) (human, UniProt O00238 14-126).
T3 construct: Residues K14-R126 are counted on the hBMPR1B ORF (NM_001203); The IgK signal peptide of the vector is left out; also called hBMPR1B-CHis; human BMPR1B-his
T3 sequence: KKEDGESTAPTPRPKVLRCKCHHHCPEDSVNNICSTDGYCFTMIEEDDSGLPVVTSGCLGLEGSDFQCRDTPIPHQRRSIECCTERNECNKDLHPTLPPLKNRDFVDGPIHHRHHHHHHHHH
Put plainly: Biacore.

In assay [2] the target is T4, human BMPR1B overexpressed on the surface of HEK293T cells (N-terminal Asp-Lys epitope tag, … (human, UniProt O00238 14-502)).
T4 construct: also called HEK293T cells overexpressing hBMPR1B; BMPR1B-expressing HEK293T cells
The assay can be described thus: flow cytometry.

For assay [3], the target named is T5, rat BMPR1B overexpressed on the surface of HEK293T cells (N-terminal Asp-Lys epitope tag, … (rat, UniProt A0A8I6A0G0 62-550)).
T5 construct: whole, on cells
Put plainly: flow cytometry. For orientation: A flow cytometer gives signals particle by particle.

Assay [4] addresses T6, cynomolgus BMPR1B overexpressed on the surface of HEK293T cells (N-terminal Asp-Lys epitope tag, … (cynomolgus)).
T6 construct: whole, on cells
The assay can be described thus: flow cytometry.

For assay [5], the target named is T4, human BMPR1B overexpressed on the …. The assay can be described thus: cell-based or functional assay.
Assay [6] addresses T5, rat BMPR1B overexpressed on the surface …. The assay can be described thus: cell-based or functional assay.
Assay [7] has as its target T6, cynomolgus BMPR1B overexpressed on the …. The assay can be described thus: cell-based or functional assay.
In assay [8] the target is T7, human BMPR1B coated on MSD plates (construct not stated) (human, UniProt O00238 14-126, limits assumed).
T7 construct: also called BMPR1B receptor
T7 sequence: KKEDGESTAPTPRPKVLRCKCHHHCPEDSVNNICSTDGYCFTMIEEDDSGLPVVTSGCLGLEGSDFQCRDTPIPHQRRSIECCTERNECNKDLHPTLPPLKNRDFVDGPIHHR
Put plainly: MSD ELISA, BMP2 blocked. Details: concentration or dose not given beside the values. A general note: In an ELISA, binding on a coated surface is turned into a signal by an enzyme label.

Assay [9] concerns the target T7, human BMPR1B coated on MSD plates …. Put plainly: MSD ELISA, BMP4 blocked. The arrangement: concentration or dose not given beside the values.

In general, Kd refers to the free concentration of one partner at which half of the binding sites on the other are occupied at equilibrium, for simple one-to-one binding. Broadly, the % inhibition is the change of the read-out against control, counted positive when it falls.

T5 sequence (chain, as listed by the source): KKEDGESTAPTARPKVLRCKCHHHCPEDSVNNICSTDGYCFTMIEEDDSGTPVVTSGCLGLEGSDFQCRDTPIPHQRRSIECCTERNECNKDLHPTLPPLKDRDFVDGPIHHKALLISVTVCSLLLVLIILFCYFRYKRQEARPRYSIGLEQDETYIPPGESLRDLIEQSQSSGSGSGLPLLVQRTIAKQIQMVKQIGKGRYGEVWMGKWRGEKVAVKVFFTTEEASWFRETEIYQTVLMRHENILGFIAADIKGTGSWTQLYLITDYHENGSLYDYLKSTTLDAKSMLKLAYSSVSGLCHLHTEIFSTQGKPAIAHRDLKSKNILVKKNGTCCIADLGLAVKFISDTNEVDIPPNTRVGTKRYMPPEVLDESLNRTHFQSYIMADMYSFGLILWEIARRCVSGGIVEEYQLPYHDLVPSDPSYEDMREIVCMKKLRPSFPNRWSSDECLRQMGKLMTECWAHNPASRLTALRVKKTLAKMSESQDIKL

B1: SC91.129 (antibody, V domains shown)
VH: QVQLQQPGAELVKPGASVKLSCKASGYTFTNYWMQWVKQRPGQGLEWIGEIDPSDRYTLYNQKFKDKATLTVDTSSSTAYMQLSSLTSEDSAVYYCARFGYYVDYWGQGTTLTVSS
VL: DAVMTQSPLSLPVSLGDQASISCRSSQSLVHSTGNTYLHWYLQKPGQSPKLLIYKVSNRFSGVPDRFSGSGSGTDFTLKISRVEAEDLGVYFCSQTTHVPFTFGSGTKLEIK
notes: copies: 2 + 2
In the case of B1, the dissociation constant Kd with Cyno-his stood at 1.62 nM; with rat-his, 0.561 nM; in [1], 0.564 nM. Besides, the gMFI in assay [2] turned out to be 26900; in [3], 10200; in [4], 16000. Besides, the “% live, Fab-saporin, 250pM” value amounted to 23.1% in assay [5], 39.2% in assay [6] and 18.5% in assay [7]. In addition, the entries for the “% inhibition” value in [8] and in assay [9] were 40% and 83%, respectively.

B2: SC91.187 (antibody, V domains shown)
VH: QVQLQQPGPEFVKPGASVKLSCKASGYTFTSYWVQWVKQRPGQGLEWIGEIDPSDNYTLYNQNFKGKATLTVDTSSSTAYMQLSSLTSEDSAVYYCARFGFYVDYWGQGTTLTVSS
VL: DVVMTQTPLSLPVSLGEQASISCRSSQSLVHSTGNTYLHWYLQKPGQSPKLLIYKVSNRFSGVPDRFSGSGSGTDFTLKISRVEAEDLGVYFCSQSTHVPFTFGSGTKLEIK
Turning to B2, the dissociation constant Kd in the assay with Cyno-his was determined as 5.58 nM; in the assay with rat-his it was 3.25 nM; in [1], 2.86 nM. The gMFI in assay [2] worked out at 25900; in [3], 9680; in assay [4] it was 14800. Besides, the “% live, Fab-saporin, 250pM” value was found to be 19.1% in [5], 36.7% in assay [6] and 24.2% in [7]. Also, the “% inhibition” value in assay [8] turned out to be 37%; in assay [9] it was 83%.

B3: SC91.172 (antibody, V domains shown)
VH: QVQLQQPGADLVKPGTSVKLSCKASGYTFTSYWMQWVKQRPGQGLEWIGEIDPSDTYTMYNQKFKGKATLTVDTSSSTAYMQLSSLTSEDSAVYYCARFGYYVDYWGQGTTLTVSS
VL: DVVMTQTPLSLPVSLGDQASISCRSSQSLVHSTGNTYLHWYLQKAGQSPKLLIYKVSNRFSGVPDRFSGSGSGTDFTLKISRVEAEDLGVYFCSQSTHVPFTFGSGTKLEIK
As for B3, the values for the Kd (with Cyno-his; with rat-his; in [1]) were 4.47 nM, 1.18 nM and 1.96 nM, respectively. Besides, the results for the gMFI in assay [2], in [3] and in assay [4] were 24000, 9510 and 15000, respectively. Further, the results for the “% live, Fab-saporin, 250pM” value in [5], in assay [6] and in assay [7] were 19.6%, 34.1% and 18%, respectively. The “% inhibition” value in [8] is 51%; in assay [9], 81%.

B4: SC91.149 (antibody, V domains shown)
VH: QVQLLQPGAELVKPGSSVKVSCKASGYTFTNYWMQWVKQRPGQGLEWIGEIDPSDTYTLYNQKFKGKATLTVDTSSSTAYMQLSSLTSEDSAVYYCARFGYYVDYWGQGTTLTVSS
VL: DVVMTQTPLSLPVSLGDQASISCRSSQSLVHSTGNTYFHWYLQKPGQSPELLIYKVSNRFSGVPDRFRGSGSGTDFTLKISRVEAEDLGVYFCSQSTHVPFTFGSGTKLEIK
Consider B4, for which the Kd with Cyno-his was 2 nM; with rat-his, below 0.1 nM; in assay [1], 1.03 nM. The gMFI in [2] was 27000; in assay [3], 10600; in [4] it was 15400. Besides, the “% live, Fab-saporin, 250pM” value in assay [5] came to 18.3%; in [6], 29.1%; in assay [7] it was 20.7%. Moreover, the “% inhibition” value in assay [8] was determined as 47%; in assay [9], 84%.

B5: SC91.119 (antibody, V domains shown)
VH: QVTLKESGPGILQPSQTLSLTCSFSGLSLSTPGMSVGWIRQPSGKGLEWLAHIWWNDDKSYNPALKSRLTISKDTSNNQVFLKIASVVTADTATYYCARGDRFAYWGQGTLVTVSA
VL: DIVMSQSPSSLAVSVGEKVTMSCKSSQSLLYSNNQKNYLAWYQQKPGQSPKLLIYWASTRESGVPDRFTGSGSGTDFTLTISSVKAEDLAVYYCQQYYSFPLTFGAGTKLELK
In the case of B5, the results for the dissociation constant (Kd) (with Cyno-his; with rat-his; in assay [1]) were 5.52 nM, 5.35 nM and 6.44 nM, respectively. Moreover, the values for the gMFI in assay [2], in assay [3] and in assay [4] were 17300, 7510 and 11500, respectively. The “% live, Fab-saporin, 250pM” value in assay [5] is 24.9%; in assay [6], 40.8%; in assay [7], 34.7%. For the same molecule, the “% inhibition” value in assay [8] stood at 35%; in [9], 65%.

B6: SC91.160 (antibody, V domains shown)
VH: QIQLVQSGPELKKPGETVKISCKASGYTFTTYGMNWVKQAPGKGLKWMGWINTYSGVPSSADDFKGRFAFSLETSASTAYLLINNLKNEDTATYFCARSELRNWYFDVWGTGTTVTVSS
VL: SFVMTQTPKFLLVSAGDRVTITCKASQNMGHDVAWYQQKPGQSPKLLIYSASNRYTGVPDRFTGSGYGTDFTFTISTVQAEDLAVYFCQQDYSSPFTFGSGTKLEMK
Consider B6, for which the equilibrium dissociation constant (Kd) in the assay with Cyno-his stood at 38.8 nM; in [1], 3.12 nM. The binding result in the assay with rat-his is recorded as “binds”. For the same molecule, the gMFI came out at 27000 in assay [2] and 15800 in [4]. The “% live, Fab-saporin, 250pM” value in assay [5] was 24.3%; in assay [6], 77.9%; in assay [7], 34.6%. The figures for the “% inhibition” value in [8] and in [9] were 47% and 79%, respectively.

B7: SC91.155 (antibody, V domains shown)
VH: QIQLVQSGPELKKPGETVKISCKASGYTFTTYGMNWVKQAPGKGLKWMGWINSYSGVPAYADDFKGRFAFSLETFASTAYLQINNLRDEDTATYFCARSELRNWYFDVWGTGTTVTVSS
VL: SFVMTQTPKFLLVSAGDRVTITCKASQNLGNDVAWYQQKPGQSPRLLIYFASNRYTGVPDRFTGSGYGTDFTFTISTVQAEDLAVYFCQQDYSSPFTFGSGTKLEIK
Turning to B7, in the assay with rat-his, the binding result is “binds”. For the same molecule, the affinity in assay [1], expressed as Kd, was 1.12 nM. Moreover, the values for the gMFI in [2], in assay [3] and in assay [4] were 25300, 7690 and 14600, respectively. For the same molecule, the figures for the “% live, Fab-saporin, 250pM” value in [5], in assay [6] and in [7] were 29.3%, 81.1% and 45.1%, respectively. Besides, the figures for the “% inhibition” value in [8] and in assay [9] were 49% and 79%, respectively.

B8: SC91.111 (antibody, V domains shown)
VH: QIQLVQSGPELKKPGETVKISCKASGYTLTTYGMNWVKQAPGKGLKWMGWINTYSGVPAYADDFKGRFAFSLETSASTAYLQINNFKNEDTATYFCARSELRNWYFDVWGTGTTVTVSS
VL: SFVMTQTPKFLLVSAGDRVTITCKASQNMGHNVAWYQQKPGQSPKLLIYYASNRYTGVPDRFTGSGYGTDFTFTISTVQAEDLAVYFCQQDYSSPFTFGSGTKLEIK
notes: copies: 2 + 2
With B8, in assay [1], the dissociation constant Kd came out at 6.67 nM. Also, the values for the gMFI in assay [2], in assay [3] and in assay [4] were 25200, 3810 and 9120, respectively. Further, the “% live, Fab-saporin, 250pM” value in assay [5] stood at 20.3%; in assay [6], 87.1%; in assay [7] it was 52.9%. Also, the “% inhibition” value amounted to 36% in [8] and 69% in assay [9].

The values above are taken from patent publication US20190153103A1 (AbbVie / Abbott, published 2019).
